We go through three molecules from publication doi:10.1101/2020.01.05.895227.

What all share (test): EMSA
The target in data set [1] is T1, Dnmt5 full-length (Cryptococcus neoformans, UniProt J9VI03 1-2377).
In another data set the target is T2, MBP-Dnmt5(345-747) (Cryptococcus neoformans, UniProt J9VI03 345-747).
T2 sequence: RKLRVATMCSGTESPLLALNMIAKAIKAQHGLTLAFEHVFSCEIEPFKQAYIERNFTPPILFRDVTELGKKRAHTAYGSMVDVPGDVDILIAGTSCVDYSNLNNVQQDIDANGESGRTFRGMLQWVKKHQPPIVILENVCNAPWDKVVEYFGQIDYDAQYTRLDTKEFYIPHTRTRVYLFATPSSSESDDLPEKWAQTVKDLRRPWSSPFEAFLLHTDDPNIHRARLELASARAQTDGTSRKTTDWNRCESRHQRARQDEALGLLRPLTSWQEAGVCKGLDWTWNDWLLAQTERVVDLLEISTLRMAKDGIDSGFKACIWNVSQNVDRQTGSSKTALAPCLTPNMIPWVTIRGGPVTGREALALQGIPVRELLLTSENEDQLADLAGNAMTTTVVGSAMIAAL

Data set [2] deals with T1, Dnmt5 full-length. The source holds these as a separate data set.
Data set [3] concerns the target T3, MBP-Dnmt5(1-150, W87A, Y90A) (Cryptococcus neoformans, UniProt J9VI03 1-150, W87A;Y90A).
T3 sequence: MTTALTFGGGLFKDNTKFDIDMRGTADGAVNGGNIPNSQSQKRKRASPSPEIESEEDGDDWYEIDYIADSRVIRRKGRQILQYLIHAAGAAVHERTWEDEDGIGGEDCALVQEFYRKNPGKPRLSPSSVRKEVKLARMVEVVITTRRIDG

Where only a bound is given, the exact number is not on record here.

B1: Unmethylated 60 bp DNA (3 CG), Cy5 (dsDNA)
DNA 1: CATGGCCTAAGCCGGACTGAATGAGCAAGCTTCCGGAGAATTCTGCCGGACTGCAGATGC
DNA 2: GCATCTGCAGTCCGGCAGAATTCTCCGGAAGCTTGCTCATTCAGTCCGGCTTAGGCCATG
For the molecule B1, the Kd (in general, the equilibrium constant for the complex coming apart) in the data set with Dnmt5 full-length [1] amounted to 20 ± 5 nM; in the data set with MBP-Dnmt5(345-747), 7 ± 3 nM.

B2: Unmethylated 60 bp DNA, one CG, Cy5 (dsDNA)
DNA 1: CATGGCCTAAGCAGGACTGAATGAGCAAGCTTCCGGAGAATTCTGCAGGACTGCAGATGC
DNA 2: GCATCTGCAGTCCTGCAGAATTCTCCGGAAGCTTGCTCATTCAGTCCTGCTTAGGCCATG
With B2, in the data set with Dnmt5 full-length [2], the binding signal is 1 reference; abasic DNA binds 5-fold tighter.

B3: Hemimethylated 60 bp DNA (3 CG), Cy5 (dsDNA)
DNA 1: CATGGCCTAAGCCGGACTGAATGAGCAAGCTTCCGGAGAATTCTGCCGGACTGCAGATGC
DNA 2: GCATCTGCAGTCCGGCAGAATTCTCCGGAAGCTTGCTCATTCAGTCCGGCTTAGGCCATG
modifications: 5mC at strand 1 positions 13, 34, 47
B3: the figures for the Kd in the data set with Dnmt5 full-length [1] and in the data set with MBP-Dnmt5(345-747) were < 1 nM and 6 ± 2 nM, respectively. Besides, in data set [3], the binding result is listed as “no binding”.
